Reference: patent US20160031959A1

Target: recombinant BAX protein (UniProt Q07812)
Assay: fluorescence polarization, FITC-labeled peptide incubated with recombinant BAX at various concentrations, 60 min, room temperature

recombinant BAX protein, sequence (Q07812 whole entry, form in doubt): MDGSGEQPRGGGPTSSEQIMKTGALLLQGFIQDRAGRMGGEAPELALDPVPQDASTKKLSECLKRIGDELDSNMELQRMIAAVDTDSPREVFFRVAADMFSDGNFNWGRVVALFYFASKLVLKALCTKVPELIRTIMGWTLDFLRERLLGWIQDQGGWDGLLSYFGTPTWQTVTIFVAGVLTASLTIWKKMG

**Q.** Which EC50 does the source give for BCL-2 BH4 SAHBA (peptide) here?
**A.** 4.6 nM
